Data set [1] deals with HeLa Kyoto. The data set can be described thus: solubility in G1/S (NP-40 vs SDS abundance) (log2 ratio); higher = more soluble. The settings on record: cell cycle stage: G1/S.
Data set [2] concerns HeLa Kyoto. Put plainly: melting temperature (median over replicates), in situ; higher = more thermally stable.
The subject of data set [3] is HeLa Kyoto. The data set can be described thus: solubility change mitosis vs G1/S (difference of NP-40 vs SDS log2 ratios) (log2 ratio difference); higher = more soluble in mitosis.
For data set [4], the system named is HeLa Kyoto. Put plainly: thermal stability score vs G1/S (z-score of summed log2 fold changes over temperatures); higher = more thermally stable than in G1/S.
The mark [5] stands for this setting: cell cycle stage: early G1 (4.5 h after nocodazole release).
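Throughout, for melting temperature (median over replicates), in situ: HeLa Kyoto cells synchronized by double thymidine or nocodazole block, proteins quantified by TMT10plex mass spectrometry, three independent biological replicates.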
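Throughout, for solubility change mitosis vs G1/S (difference of NP-40 vs SDS log2 ratios): synchronized HeLa Kyoto cells (double thymidine block for G1/S, nocodazole release for mitosis), protein amounts in NP-40 versus SDS lysates quantified by mass spectrometry, three biological replicates.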
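Throughout, for solubility in G1/S (NP-40 vs SDS abundance): HeLa Kyoto cells arrested at G1/S by double thymidine block, proteins quantified by TMT10plex mass spectrometry in mild NP-40 versus SDS extracts, three biological replicates.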
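Throughout, for thermal stability score vs G1/S (z-score of summed log2 fold changes over temperatures): synchronized HeLa Kyoto cells, proteins quantified by TMT10plex mass spectrometry, three biological replicates, mitosis taken 0.5 h after nocodazole release, G1/S directly after double thymidine block.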

With “MSELEQLRQEAEQLRNQIQDARKACNDATLVQITSNMDSVGRIQMRTRRTLRGHLAKIYAMHWGYDSRLLVSASQDGKLIIWDSYTTNKMHAIPLRSSWVMTCAYAPSGNYVACGGLDNICSIYNLKTREGNVRVSRELPGHTGYLSCCRFLDDSQIVTSSGDTTCALWDIETAQQTTTFTGHSGDVMSLSLSPDMRTFVSGACDASSKLWDIRDGMCRQSFTGHVSDINAVSFFPNGYAFATGSDDATCRLFDLRADQELLLYSHDNIICGITSVAFSKSGRLLLAGYDDFNCNVWDTLKGDRAGVLAGHDNRVSCLGVTDDGMAVATGSWDSFLRIWN [GNB4]”, in the data set with HeLa Kyoto [1], the “solubility in G1/S (log2)” value is -0.287. In addition, the values for the melting temperature in the data set on HeLa Kyoto [2] (cell cycle stage: G1/S) and in the data set with HeLa Kyoto [2] (cell cycle stage: mitosis) were 55.6 °C and 56.7 °C, respectively. Also, the “solubility change mitosis (log2)” value in the data set with HeLa Kyoto [3] was -0.13. Further, the thermal stability score in the data set on HeLa Kyoto [4] (setting [5]) is -1.5; in the data set with HeLa Kyoto [4] (cell cycle stage: mitosis) it was -0.567.
With “MSERCCSRYSSGASIGCTPTSTQAKMVSKRIAQETFDAAVRENIEEFAMGPEEAVKEAVEQFESQGVDLSNIVKTAPKVSADGSQEPTHDILQMLSDLQESVASSRPQEVSAYLTRFCDQCKQDKACRFLAAQKGAYPIIFTAWKLATAGDQGLLLQSLNALSVLTDGQPDLLDAQGLQLLVATLTQNADEADLTCSGIRCVRHACLKHEQNRQDLVKAGVLPLLTGAITHHGHHTDVVREACWALRVMTFDDDIRVPFGHAHNHAKMIVQENKGLKVLIEATKAFLDNPGILSELCGTLSRLAIRNEFCQEVVDLGGLSILVSLLADCNDHQMRDQSGVQELVKQVLSTLRAIAGNDDVKDAIVRAGGTESIVAAMTQHLTSPQVCEQSCAALCFLALRKPDNSRIIVEGGGAVAALQAMKAHPQKAGVQKQACMLIRNLVAHGQAFSKPILDLGAEALIMQARSAHRDCEDVAKAALRDLGCHVELRELWTGQRGNLAP [ARMC6]”, in the data set with HeLa Kyoto [1], the “solubility in G1/S (log2)” value was found to be 0.319. Besides, the melting temperature in the data set with HeLa Kyoto [2] (cell cycle stage: G1/S) worked out at 46.8 °C; in the data set on HeLa Kyoto [2] (cell cycle stage: mitosis), 47 °C. Besides, in the data set with HeLa Kyoto [3], the “solubility change mitosis (log2)” value is -0.0993. The thermal stability score in the data set on HeLa Kyoto [4] (setting [5]) was found to be 0.787; with HeLa Kyoto [4] (cell cycle stage: mitosis), 2.44.
For “MSERKVLNKYYPPDFDPSKIPKLKLPKDRQYVVRLMAPFNMRCKTCGEYIYKGKKFNARKETVQNEVYLGLPIFRFYIKCTRCLAEITFKTDPENTDYTMEHGATRNFQAEKLLEEEEKRVQKEREDEELNNPMKVLENRTKDSKLEMEVLENLQELKDLNQRQAHVDFEAMLRQHRLSEEERRRQQQEEDEQETAALLEEARKRRLLEDSDSEDEAAPSPLQPALRPNPTAILDEAPKPKRKVEVWEQSVGSLGSRPPLSRLVVVKKAKADPDCSNGQPQAAPTPGAPQNRKEANPTPLTPGASSLSQLGAYLDSDDSNGSN [CCDC94]”, in the data set on HeLa Kyoto [1], the “solubility in G1/S (log2)” value was found to be 0.299. The figures for the melting temperature in the data set on HeLa Kyoto [2] (cell cycle stage: G1/S) and in the data set on HeLa Kyoto [2] (cell cycle stage: mitosis) were 51.6 °C and 52.3 °C, respectively. Besides, the “solubility change mitosis (log2)” value in the data set with HeLa Kyoto [3] is -0.0138. Moreover, the thermal stability score came to 0.296 with HeLa Kyoto [4] (setting [5]) and 0.409 in the data set with HeLa Kyoto [4] (cell cycle stage: mitosis).
As for “MSFFNFRKIFKLGSEKKKKQYEHVKRDLNPEDFWEIIGELGDGAFGKVYKAQNKETSVLAAAKVIDTKSEEELEDYMVEIDILASCDHPNIVKLLDAFYYENNLWILIEFCAGGAVDAVMLELERPLTESQIQVVCKQTLDALNYLHDNKIIHRDLKAGNILFTLDGDIKLADFGVSAKNTRTIQRRDSFIGTPYWMAPEVVMCETSKDRPYDYKADVWSLGITLIEMAEIEPPHHELNPMRVLLKIAKSEPPTLAQPSRWSSNFKDFLKKCLEKNVDARWTTSQLLQHPFVTVDSNKPIRELIAEAKAEVTEEVEDGKEEDEEEETENSLPIPASKRASSDLSIASSEEDKLSQNACILESVSEKTERSNSEDKLNSKILNEKPTTDEPEKAVEDINEHITDAQLEAMTELHDRTAVIKENEREKRPKLENLPDTEDQETVDINSVSEGKENNIMITLETNIEHNLKSEEEKDQEKQQMFENKLIKSEEIKDTILQTVDLVSQETGEKEANIQAVDSEVGLTKEDTQEKLGEDDKTQKDVISNTSDVIGTCEAADVAQKVDEDSAEDTQSNDGKEVVEVGQKLINKPMVGPEAGGTKEVPIKEIVEMNEIEEGKNKEQAINSSENIMDINEEPGTTEGEEITESSSTEEMEVRSVVADTDQKALGSEVQDASKVTTQIDKEKKEIPVSIKKEPEVTVVSQPTEPQPVLIPSININSDSGENKEEIGSLSKTETILPPESENPKENDNDSGTGSTADTSSIDLNLSISSFLSKTKDSGSISLQETRRQKKTLKKTRKFIVDGVEVSVTTSKIVTDSDSKTEELRFLRRQELRELRFLQKEEQRAQQQLNSKLQQQREQIFRRFEQEMMSKKRQYDQEIENLEKQQKQTIERLEQEHTNRLRDEAKRIKGEQEKELSKFQNMLKNRKKEVINEVEKAPKELRKELMKRRKEELAQSQHAQEQEFVQKQQQELDGSLKKIIQQQKAELANIERECLNNKQQLMRAREAAIWELEERHLQEKHQLLKQQLKDQYFMQRHQLLKRHEKETEQMQRYNQRLIEELKNRQTQERARLPKIQRSEAKTRMAMFKKSLRINSTATPDQDRDKIKQFAAQEEKRQKNERMAQHQKHENQMRDLQLQCEANVRELHQLQNEKCHLLVEHETQKLKELDEEHSQELKEWREKLRPRKKTLEEEFARKLQEQEVFFKMTGESECLNPSTQSRISKFYPIPSLHSTGS”, the “solubility in G1/S (log2)” value in the data set on HeLa Kyoto [1] worked out at 0.0156. Besides, the melting temperature in the data set on HeLa Kyoto [2] (cell cycle stage: G1/S) worked out at 50.2 °C; in the data set with HeLa Kyoto [2] (cell cycle stage: mitosis) it was 49.9 °C. Besides, the “solubility change mitosis (log2)” value with HeLa Kyoto [3] was -0.139. Also, the values for the thermal stability score in the data set with HeLa Kyoto [4] (setting [5]) and in the data set on HeLa Kyoto [4] (cell cycle stage: mitosis) were -0.208 and 0.991, respectively.
As for “MSFICGLQSAARNHVFFRFNSLSNWRKCNTLASTSRGCHQVQVNHIVNKYQGLGVNQCDRWSFLPGNFHFYSTFNNKRTGGLSSTKSKEIWRITSKCTVWNDAFSRQLLIKEVTAVPSLSVLHPLSPASIRAIRNFHTSPRFQAAPVPLLLMILKPVQKLFAIIVGRGIRKWWQALPPNKKEVVKENIRKNKWKLFLGLSSFGLLFVVFYFTHLEVSPITGRSKLLLLGKEQFRLLSELEYEAWMEEFKNDMLTEKDARYLAVKEVLCHLIECNKDVPGISQINWVIHVVDSPIINAFVLPNGQMFVFTGFLNSVTDIHQLSFLLGHEIAHAVLGHAAEKAGMVHLLDFLGMIFLTMIWAICPRDSLALLCQWIQSKLQEYMFNRPYSRKLEAEADKIGLLLAAKACADIRASSVFWQQMEFVDSLHGQPKMPEWLSTHPSHGNRVEYLDRLIPQALKIREMCNCPPLSNPDPRLLFKLSTKHFLEESEKEDLNITKKQKMDTLPIQKQEQIPLTYIVEKRTGS [OMA1]”, in the data set with HeLa Kyoto [1], the “solubility in G1/S (log2)” value is -0.436. In addition, the melting temperature was determined as 54.1 °C with HeLa Kyoto [2] (cell cycle stage: G1/S) and 54.7 °C with HeLa Kyoto [2] (cell cycle stage: mitosis). Moreover, the “solubility change mitosis (log2)” value in the data set on HeLa Kyoto [3] is -0.0922. Also, the thermal stability score in the data set on HeLa Kyoto [4] (setting [5]) was -1.79; in the data set with HeLa Kyoto [4] (cell cycle stage: mitosis) it was -1.54.
As for “MSFLLPKLTSKKEVDQAIKSTAEKVLVLRFGRDEDPVCLQLDDILSKTSSDLSKMAAIYLVDVDQTAVYTQYFDISYIPSTVFFFNGQHMKVDYGSPDHTKFVGSFKTKQDFIDLIEVIYRGAMRGKLIVQSPIDPKNIPKYDLLYQDI [TXNL4B]”, in the data set on HeLa Kyoto [1], the “solubility in G1/S (log2)” value amounted to 0.0975. The results for the melting temperature in the data set on HeLa Kyoto [2] (cell cycle stage: G1/S) and with HeLa Kyoto [2] (cell cycle stage: mitosis) were 51 °C and 51.8 °C, respectively. Besides, the “solubility change mitosis (log2)” value in the data set on HeLa Kyoto [3] came to 0.00266. In addition, the thermal stability score is 0.0365 in the data set on HeLa Kyoto [4] (setting [5]) and 1.15 with HeLa Kyoto [4] (cell cycle stage: mitosis).

The record behind these values is the supplement of paper PMC5998384.
